Assay results from publication PMC10239980, “A new portable toluidine blue/aptamer complex-on-polyethyleneimine-coated gold nanoparticles-based sensor for label-free electrochemical detection of alpha-fetoprotein”.

Biological target: T1, Alpha-fetoprotein (AFP) (UniProt P02771 19-609)
T1 sequence: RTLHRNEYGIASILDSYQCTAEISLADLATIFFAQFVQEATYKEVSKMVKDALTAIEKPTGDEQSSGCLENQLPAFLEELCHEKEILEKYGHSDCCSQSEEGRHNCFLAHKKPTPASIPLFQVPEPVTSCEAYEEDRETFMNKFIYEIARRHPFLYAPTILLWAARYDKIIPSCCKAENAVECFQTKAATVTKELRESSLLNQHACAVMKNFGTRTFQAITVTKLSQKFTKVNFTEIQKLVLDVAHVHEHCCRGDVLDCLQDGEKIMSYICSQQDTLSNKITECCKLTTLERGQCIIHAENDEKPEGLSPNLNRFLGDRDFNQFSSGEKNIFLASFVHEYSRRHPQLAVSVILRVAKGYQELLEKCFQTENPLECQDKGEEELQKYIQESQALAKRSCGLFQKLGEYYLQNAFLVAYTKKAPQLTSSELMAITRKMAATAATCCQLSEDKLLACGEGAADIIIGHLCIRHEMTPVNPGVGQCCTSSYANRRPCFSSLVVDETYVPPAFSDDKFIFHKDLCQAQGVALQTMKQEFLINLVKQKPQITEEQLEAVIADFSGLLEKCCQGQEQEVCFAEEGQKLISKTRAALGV
Assay: electrochemical aptasensor (DPV, CV, EIS); toluidine blue, BSA-blocked PEI-AuNPs electrode; 50 ng/mL AFP lowers DPV current ca. 39 to 26 uA; 10 mM sodium phosphate buffer pH 7.0, 30 min incubation at room temperature; CV in 10 mM PBS pH 7.4 with 5 mM [Fe(CN)6]3-
Settings: protein: commercial

B1: AFP-specific aptamer (75-mer) (ssDNA)
DNA: GTGACGCTCCTAACGCTGACTCAGGTGCAGTTCTCGACTCGGTCTTGATGTGGGTCCTGTCCGTCCGAACCAATC
  binding result: binds
